Where two headings read alike, the source gives them in different places. Bridge positions count the residues as written; N and C are the ends. Square brackets hold non-standard residues; d marks the D form. Ends that are not written are not given here. Peptide text beside a SMILES is read from it. R8 = C=CCCCCCC[C@@](C)(N)C(=O)O; S5 = C=CCCC[C@](C)(N)C(=O)O
Tests used:
SKBR3 cells = test: Flow cytometry with Annexin V FITC-PI staining; format: cell-based; conditions: SKBR3, 24 hours
Procedure: FIG. 12 is a schematic diagram of the result showing the peptides based on strategy (i7-01s) scaffold induce cell death with necrotic features. Flow cytometry analysis with Annexin V FITC-PI staining is performed in SKBR3 cells after treatment of the indicated peptides for 24 hours.
The degree of cellular apoptosis and necrosis is assessed by flow cytometry following the standard protocol provided by the manufacturer. Briefly, SKBR3 cells after the indicated peptide treatment are harvested by trypsin, labelled with Annexin V and PI (Invitrogen), subjected to flow cytometer system (BD Accuri C6), and analyzed by BD Accuri C6 software. The cell populations can be distinguished by the staining of Annexin V/PI. Typically, cellular population in the lower left quadrant is live cells (Annexin V^−, PI^−), the lower right quadrant represents early apoptotic cells (Annexin V^+, PI^−), the upper right quadrant represents late apoptotic cells (Annexin V^+, PI^+), the upper left quadrant represents necrotic cells (Annexin V^−, PI^+).

[1] = molecular target: T1, Beclin 1 coiled coil domain (Homo sapiens, UniProt Q14457); test: Isothermal titration calorimetry (ITC) binding affinity; conditions: 25° C., pH 7.4, Tat-fused peptide
T1 construct: the coiled coil domain of human Beclin 1 (residues 176-268); thioredoxin-6xHis fusion tag with HRV 3C protease cleavage site; made in house; host or cells: Escherichia coli BL21(DE3)
Procedure: The expression and purification of Beclin 1 coiled coil domain is performed as described previously. Briefly, the coiled coil domain of human Beclin 1 (residues 176-268) is cloned into the modified pET32a vector containing the human rhinovirus (HRV) 3C protease cleavage site and thioredoxin-6×His fusion tag. Recombinant protein for the Beclin1 coiled oil domain is expressed in Escherichia coli BL21(DE3) and purified by Ni^2+-NTA affinity chromatography (His Trap HP, GE Healthcare) first and followed by size-exclusion chromatography (Superdex 75, GE Healthcare).
ITC assays are carried out by MicroCal PEAQ-ITC Automated (Marvern) at 25° C. All designed peptides and purified protein for the Beclin 1 coiled coil domain are dialyzed into the buffer containing 50 mM Tris, 150 mM NaCl at pH 7.4. For each titration assay, the injection syringe is loaded with 40 μl of peptide and the cell is loaded with Beclin 1 coiled coil domain protein. Typically, titrations consist of 19 injections, and each injection is performed at a time interval of 180 seconds to ensure that the titration peak returns to the baseline. The titration data are analyzed using the MicroCal PEAQ-ITC Analysis software and fitted by the one-site binding model.

T1 sequence (Q14457 176-268): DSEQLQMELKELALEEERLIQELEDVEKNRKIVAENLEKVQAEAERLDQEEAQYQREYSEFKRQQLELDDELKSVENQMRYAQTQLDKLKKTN

Compound	Kd [1]	further results
COc1cccc2c1C(=O)c1c(O)c3c(c(O)c1C2=O)C[C@@](O)(C(=O)CO)C[C@@H]3O[C@H]1C[C@H](N)[C@H](O)[C@H](C)O1 [doxorubicin, reference compound]		change of Annexin V positive cells (apoptosis) (SKBR3 cells): significant increase
CC[C@H](C)[C@H](NC(=O)[C@H](CC(C)C)NC(=O)[C@H](C)NC(=O)[C@H](CCCNC(=N)N)NC(=O)[C@H](CCCNC(=N)N)NC(=O)[C@H](CCCNC(=N)N)NC(=O)[C@H](CCC(N)=O)NC(=O)[C@H](CCCNC(=N)N)NC(=O)[C@H](CCCNC(=N)N)NC(=O)[C@H](CCCCN)NC(=O)[C@H](CCCCN)NC(=O)[C@H](CCCNC(=N)N)NC(=O)CNC(=O)[C@H](Cc1ccc(O)cc1)NC(C)=O)C(=O)N[C@@H](CCC(N)=O)C(=O)N[C@]1(C)CCCCCCC=CCCC[C@@](C)(C(=O)N[C@@H](CCCNC(=N)N)C(=O)N[C@@H](CCCCN)C(=O)N[C@@H](CCCNC(=N)N)C(N)=O)NC(=O)[C@H](CCCCN)NC(=O)[C@H](CCC(=O)O)NC(=O)[C@H](C(C)C)NC(=O)[C@H](CC(=O)O)NC(=O)[C@H](CCC(=O)O)NC(=O)[C@H](CCC(N)=O)NC1=O [i7-01s-54, Ace-ALIQR8QEDVEKS5RKR-Nme] (Ac-YGRKKRRQRRRALIQ[R8]QEDVEK[S5]RKR-NH2; staple 16-23)		Kd ([1]; read-out: Kd): 311 ± 54.6 µM
Ace-RFIQR8LEVVIKS5RSV-Nme (Ac-RFIQ[R8]LEVVIK[S5]RSV; staple 5-12; not fully specified (C-terminus); printed as Ace-RFIQR8LEVVIKS5RSV-Nme) [i7-01s-34]	No binding	
Ace-RLIQR8REDVEKS5RKR-Nme (Ac-RLIQ[R8]REDVEK[S5]RKR; staple 5-12; not fully specified (C-terminus); printed as Ace-RLIQR8REDVEKS5RKR-Nme) [i7-01s-36]	No binding	
Ace-RLLQR8LKTVLKS5RSV-Nme (Ac-RLLQ[R8]LKTVLK[S5]RSV; staple 5-12; not fully specified (C-terminus); printed as Ace-RLLQR8LKTVLKS5RSV-Nme) [i7-01s-30]	No binding	
